Data as given in patent publication US20250270296A1 (ACADEMIA SINICA, published 2025).
Substitutions are numbered along the chain they refer to.

B1: RBD-chAb-1 (antibody, V domains shown)
VH: EVQLQQSGPQLVRPGASMKISCKASGYSFTTYWMHWVKQRPGQGLQWIGMIDPSDSETRLNQKFKDKATLTVDKSSSTAYMQLSSPTSEDSAVYYCARDFDYDRTMDYWGQGTSVTVSS
VL: DIVMSQSPSSLAVSVGEKVTMSCKSSQSLLFSSSQKNYLAWYQQKAGQSPKLLIFWASTRESGVPDRFTGSGSGTDFTLTISSVKAEDLAIYYCKQYYKYPLTFGAGTKLDIK
B2: RBD-chAb-28 (antibody, V domains shown)
VH: QVQLQQPGTELVMPGASVKMSCKASGYTFTDYYLHWMKQRPGQGLEWIGAIDSSDSYTDYNQNFKGKATLTVDESSSTAYMHLSSLTSEDSAVYYCARGKDAYDRRPWFAYWGQGTLVTVSA
VL: DIQMTQTTSSLSASLGDRVTISCSASQGIRYYLNWYQQKPDGTVKLLIYYTSNLHSGVPSRFSGSGSGTDYSLTISNLEPEDIATYYCQQYNKLPYTFGGGTKLDIK
B3: RBD-chAb-15 (antibody, V domains shown)
VH: EVQLEESGPGLVQPSQSLSITCTVSDFSLTTYGVHWVRQSPGKGLEWLGVIWSGGSTDYNAAFISRLSISKDNSKSQVFFKMNSLQTNDTAIYYCARMGDGYYVGAMDYWGQGTSVTVSS
VL: DIQLTQSPAILSVSPGERVSFSCRASQSIGTSIHWYQQRTNGSPRHLIKYASESISGIPSRFSGSGSGTDFTLTINGVESEDIADYYCQQGHNWPLTFGAGTKLDIK
B4: RBD-chAb-45 (antibody, V domains shown)
VH: EVQLQQSGPELVKPGASVKISCKTSGYTFTEYTIYWVKQSLGKSLEWIGGNNPNNDDTTYKQFFKGKATLTVDKSSSTAYMELRSLTSEDSAVYYCARDGYPYYYALDFWGQGTSVTVSS
VL: DILMTQSQKFMSTSVGDRVSVTCKSSQNVGTNVAWYQQKPGQSPKALIYSASYRYSGVPDHFTGSGSGTDFTLTISNVQSADLAEYFCQQYNNYPWTFGGGTKLDIK
B5: RBD-chAb-51 (antibody, V domains shown)
VH: B4 VH with V18A, I34M, L41H, N51I, D56G, K61N, F63T, Y103F, F109Y, T114I
VL: DIVMTQSQKFMSTSVGDRVSVTCKARQIVGTNVAWYQQKPGQSPKALIYSASYRYSGVPDRFTGSGSGTDFTLTITNVHSEDLAEFFCHQYNSYPWTFGGGTKLDIK

Legend:
[1] = target: SARS-CoV-2 S protein, full length, wild type (on pseudovirus, authentic virus hCoV-19/Taiwan/4/2020 (SARS-CoV-2, UniProt P0DTC2 14-1273)); experiment: cell-based or functional assay
[2] = target: SARS-COV-2 RBD-His protein (SARS-CoV-2, UniProt P0DTC2 319-541)

Binder	PRNT50 [1]	pseudovirus neutralization assay IC50 [1]	further results
B1	< 36 ng/mL	–	–
B2	–	8.75 ng/mL	–
B3	< 36 ng/mL	–	–
B4	–	2.3 ng/mL	Kd [2]: 0.282 nM; koff [2]: 0.000282 s⁻¹; kon [2]: 997000 M⁻¹ s⁻¹
B5	–	0.98 ng/mL	–
